# Test results as given in patent US8969060B2, “Modified glucose dehydrogenase” (Ikeda Food Research Co., Ltd., priority 2011, dated 2015).
# How the values were obtained:
# [1] = Relative enzymatic activity of GLD (DCIP/1-m-PMS, plate reader, yeast culture supernatant) with 1,10-phenanthroline present; type: biochemical; conditions: site-specific mutants, inhibitor final concentration 1 mM
# Method in brief: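 Inhibitor at 1 mM final substitutes for the methanol in the reagent, and the sample rate is expressed as % of the inhibitor-free blank. Rates come from ΔA600/min of DCIP with glucose and 1-m-PMS at pH 7.0, using supernatants of YPD-grown yeast clones (24 h, 30° C.).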
# [2] = Relative enzymatic activity of GLD (DCIP/1-m-PMS, plate reader, yeast culture supernatant) with proflavin hydrochloride present; type: biochemical; conditions: site-specific mutants, inhibitor final concentration 1 mM
# Method in brief: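 Culture supernatant diluted and mixed with reagent of phosphate buffer pH 7.0, 1.0 M D-glucose, 3 mM DCIP, 3 mM 1-m-PMS and methanol (0.1:1:0.14:0.2:0.06). DCIP absorbance decrease at 600 nm followed; proflavin hydrochloride in methanol replaced methanol at 1 mM final. Activity expressed as % of inhibitor-free blank.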
Molecule,"Relative Activity [%] 1,10-Phenanthroline [1]",Relative Activity [%] Proflavin hydrochloride [2]
"Y424T: modified GLD: SEQ ID NO: 1 with substitution Y424T (protein, listed as Aspergillus terreus, SIGNAL (1)..(19)) MLGKLSFLSALSLAVAAPLSNSTSAKYDYIVIGGGTSGLAVANRLSEDPNVNVLILEAGGSVWNNPNVTNVDGYGLAFGSDIDWQYQSVNQPYGGNLSQVLRAGKALGGTSTINGMAYTRAEDVQIDAWETIGNTGWTWKNLFPYYRKSENFTVPTKSQTSLGASYEAGAHGHEGPLDVAFTQIESNNLTTYLNRTFQGMGLPWTEDVNGGKMRGFNLYPSTVNLEEYVREDAARAYYWPYKSRPNLHVLLNTFANRIVWDGEAHDGHITASGVEITSRNGTVRVINAEKEVIVSAGALKSPAILELSGIGNPSVLDKHNIPVKVNLPTVGENLQDQVNSHMDASGNTSISGTKAVSYPDVYDVFGDEAESVAKQIRANLKQYAADTAKANGNIMKAADLERLFEVQYDLIFKGRVPIAEVLNTPGSATSVFAEFWALLPFARGSVHIGSSNPAEFPVINPNYFMLDWDAKSYVAVAKYIRRSFESYPLSSIVKESTPGYDVIPRNASEQSWKEWVFDKNYRSNFHPVGTAAMMPREIGGVVDERLNVYGTTNVRVVDASVLPFQVCGHLVSTLYAVAERAADLIKADAGRR",71.2%,43.4%
"G426F: modified GLD: SEQ ID NO: 1 with substitution G426F (protein, listed as Aspergillus terreus, SIGNAL (1)..(19)) MLGKLSFLSALSLAVAAPLSNSTSAKYDYIVIGGGTSGLAVANRLSEDPNVNVLILEAGGSVWNNPNVTNVDGYGLAFGSDIDWQYQSVNQPYGGNLSQVLRAGKALGGTSTINGMAYTRAEDVQIDAWETIGNTGWTWKNLFPYYRKSENFTVPTKSQTSLGASYEAGAHGHEGPLDVAFTQIESNNLTTYLNRTFQGMGLPWTEDVNGGKMRGFNLYPSTVNLEEYVREDAARAYYWPYKSRPNLHVLLNTFANRIVWDGEAHDGHITASGVEITSRNGTVRVINAEKEVIVSAGALKSPAILELSGIGNPSVLDKHNIPVKVNLPTVGENLQDQVNSHMDASGNTSISGTKAVSYPDVYDVFGDEAESVAKQIRANLKQYAADTAKANGNIMKAADLERLFEVQYDLIFKGRVPIAEVLNYPFSATSVFAEFWALLPFARGSVHIGSSNPAEFPVINPNYFMLDWDAKSYVAVAKYIRRSFESYPLSSIVKESTPGYDVIPRNASEQSWKEWVFDKNYRSNFHPVGTAAMMPREIGGVVDERLNVYGTTNVRVVDASVLPFQVCGHLVSTLYAVAERAADLIKADAGRR",60.5%,51.8%
"G426H: modified GLD: SEQ ID NO: 1 with substitution G426H (protein, listed as Aspergillus terreus, SIGNAL (1)..(19)) MLGKLSFLSALSLAVAAPLSNSTSAKYDYIVIGGGTSGLAVANRLSEDPNVNVLILEAGGSVWNNPNVTNVDGYGLAFGSDIDWQYQSVNQPYGGNLSQVLRAGKALGGTSTINGMAYTRAEDVQIDAWETIGNTGWTWKNLFPYYRKSENFTVPTKSQTSLGASYEAGAHGHEGPLDVAFTQIESNNLTTYLNRTFQGMGLPWTEDVNGGKMRGFNLYPSTVNLEEYVREDAARAYYWPYKSRPNLHVLLNTFANRIVWDGEAHDGHITASGVEITSRNGTVRVINAEKEVIVSAGALKSPAILELSGIGNPSVLDKHNIPVKVNLPTVGENLQDQVNSHMDASGNTSISGTKAVSYPDVYDVFGDEAESVAKQIRANLKQYAADTAKANGNIMKAADLERLFEVQYDLIFKGRVPIAEVLNYPHSATSVFAEFWALLPFARGSVHIGSSNPAEFPVINPNYFMLDWDAKSYVAVAKYIRRSFESYPLSSIVKESTPGYDVIPRNASEQSWKEWVFDKNYRSNFHPVGTAAMMPREIGGVVDERLNVYGTTNVRVVDASVLPFQVCGHLVSTLYAVAERAADLIKADAGRR",54.9%,48.7%
"G352D: modified GLD: SEQ ID NO: 1 with substitution G352D (protein, listed as Aspergillus terreus, SIGNAL (1)..(19)) MLGKLSFLSALSLAVAAPLSNSTSAKYDYIVIGGGTSGLAVANRLSEDPNVNVLILEAGGSVWNNPNVTNVDGYGLAFGSDIDWQYQSVNQPYGGNLSQVLRAGKALGGTSTINGMAYTRAEDVQIDAWETIGNTGWTWKNLFPYYRKSENFTVPTKSQTSLGASYEAGAHGHEGPLDVAFTQIESNNLTTYLNRTFQGMGLPWTEDVNGGKMRGFNLYPSTVNLEEYVREDAARAYYWPYKSRPNLHVLLNTFANRIVWDGEAHDGHITASGVEITSRNGTVRVINAEKEVIVSAGALKSPAILELSGIGNPSVLDKHNIPVKVNLPTVGENLQDQVNSHMDASGNTSISDTKAVSYPDVYDVFGDEAESVAKQIRANLKQYAADTAKANGNIMKAADLERLFEVQYDLIFKGRVPIAEVLNYPGSATSVFAEFWALLPFARGSVHIGSSNPAEFPVINPNYFMLDWDAKSYVAVAKYIRRSFESYPLSSIVKESTPGYDVIPRNASEQSWKEWVFDKNYRSNFHPVGTAAMMPREIGGVVDERLNVYGTTNVRVVDASVLPFQVCGHLVSTLYAVAERAADLIKADAGRR",87.8%,42.7%
"G426E: modified GLD: SEQ ID NO: 1 with substitution G426E (protein, listed as Aspergillus terreus, SIGNAL (1)..(19)) MLGKLSFLSALSLAVAAPLSNSTSAKYDYIVIGGGTSGLAVANRLSEDPNVNVLILEAGGSVWNNPNVTNVDGYGLAFGSDIDWQYQSVNQPYGGNLSQVLRAGKALGGTSTINGMAYTRAEDVQIDAWETIGNTGWTWKNLFPYYRKSENFTVPTKSQTSLGASYEAGAHGHEGPLDVAFTQIESNNLTTYLNRTFQGMGLPWTEDVNGGKMRGFNLYPSTVNLEEYVREDAARAYYWPYKSRPNLHVLLNTFANRIVWDGEAHDGHITASGVEITSRNGTVRVINAEKEVIVSAGALKSPAILELSGIGNPSVLDKHNIPVKVNLPTVGENLQDQVNSHMDASGNTSISGTKAVSYPDVYDVFGDEAESVAKQIRANLKQYAADTAKANGNIMKAADLERLFEVQYDLIFKGRVPIAEVLNYPESATSVFAEFWALLPFARGSVHIGSSNPAEFPVINPNYFMLDWDAKSYVAVAKYIRRSFESYPLSSIVKESTPGYDVIPRNASEQSWKEWVFDKNYRSNFHPVGTAAMMPREIGGVVDERLNVYGTTNVRVVDASVLPFQVCGHLVSTLYAVAERAADLIKADAGRR",64.4%,32.6%
"G352C: modified GLD: SEQ ID NO: 1 with substitution G352C (protein, listed as Aspergillus terreus, SIGNAL (1)..(19)) MLGKLSFLSALSLAVAAPLSNSTSAKYDYIVIGGGTSGLAVANRLSEDPNVNVLILEAGGSVWNNPNVTNVDGYGLAFGSDIDWQYQSVNQPYGGNLSQVLRAGKALGGTSTINGMAYTRAEDVQIDAWETIGNTGWTWKNLFPYYRKSENFTVPTKSQTSLGASYEAGAHGHEGPLDVAFTQIESNNLTTYLNRTFQGMGLPWTEDVNGGKMRGFNLYPSTVNLEEYVREDAARAYYWPYKSRPNLHVLLNTFANRIVWDGEAHDGHITASGVEITSRNGTVRVINAEKEVIVSAGALKSPAILELSGIGNPSVLDKHNIPVKVNLPTVGENLQDQVNSHMDASGNTSISCTKAVSYPDVYDVFGDEAESVAKQIRANLKQYAADTAKANGNIMKAADLERLFEVQYDLIFKGRVPIAEVLNYPGSATSVFAEFWALLPFARGSVHIGSSNPAEFPVINPNYFMLDWDAKSYVAVAKYIRRSFESYPLSSIVKESTPGYDVIPRNASEQSWKEWVFDKNYRSNFHPVGTAAMMPREIGGVVDERLNVYGTTNVRVVDASVLPFQVCGHLVSTLYAVAERAADLIKADAGRR",86.2%,43.8%
"G352A: modified GLD: SEQ ID NO: 1 with substitution G352A (protein, listed as Aspergillus terreus, SIGNAL (1)..(19)) MLGKLSFLSALSLAVAAPLSNSTSAKYDYIVIGGGTSGLAVANRLSEDPNVNVLILEAGGSVWNNPNVTNVDGYGLAFGSDIDWQYQSVNQPYGGNLSQVLRAGKALGGTSTINGMAYTRAEDVQIDAWETIGNTGWTWKNLFPYYRKSENFTVPTKSQTSLGASYEAGAHGHEGPLDVAFTQIESNNLTTYLNRTFQGMGLPWTEDVNGGKMRGFNLYPSTVNLEEYVREDAARAYYWPYKSRPNLHVLLNTFANRIVWDGEAHDGHITASGVEITSRNGTVRVINAEKEVIVSAGALKSPAILELSGIGNPSVLDKHNIPVKVNLPTVGENLQDQVNSHMDASGNTSISATKAVSYPDVYDVFGDEAESVAKQIRANLKQYAADTAKANGNIMKAADLERLFEVQYDLIFKGRVPIAEVLNYPGSATSVFAEFWALLPFARGSVHIGSSNPAEFPVINPNYFMLDWDAKSYVAVAKYIRRSFESYPLSSIVKESTPGYDVIPRNASEQSWKEWVFDKNYRSNFHPVGTAAMMPREIGGVVDERLNVYGTTNVRVVDASVLPFQVCGHLVSTLYAVAERAADLIKADAGRR",76.1%,47.9%
"Y424V: modified GLD: SEQ ID NO: 1 with substitution Y424V (protein, listed as Aspergillus terreus, SIGNAL (1)..(19)) MLGKLSFLSALSLAVAAPLSNSTSAKYDYIVIGGGTSGLAVANRLSEDPNVNVLILEAGGSVWNNPNVTNVDGYGLAFGSDIDWQYQSVNQPYGGNLSQVLRAGKALGGTSTINGMAYTRAEDVQIDAWETIGNTGWTWKNLFPYYRKSENFTVPTKSQTSLGASYEAGAHGHEGPLDVAFTQIESNNLTTYLNRTFQGMGLPWTEDVNGGKMRGFNLYPSTVNLEEYVREDAARAYYWPYKSRPNLHVLLNTFANRIVWDGEAHDGHITASGVEITSRNGTVRVINAEKEVIVSAGALKSPAILELSGIGNPSVLDKHNIPVKVNLPTVGENLQDQVNSHMDASGNTSISGTKAVSYPDVYDVFGDEAESVAKQIRANLKQYAADTAKANGNIMKAADLERLFEVQYDLIFKGRVPIAEVLNVPGSATSVFAEFWALLPFARGSVHIGSSNPAEFPVINPNYFMLDWDAKSYVAVAKYIRRSFESYPLSSIVKESTPGYDVIPRNASEQSWKEWVFDKNYRSNFHPVGTAAMMPREIGGVVDERLNVYGTTNVRVVDASVLPFQVCGHLVSTLYAVAERAADLIKADAGRR",49.1%,46.7%
